Experimental data as given in patent US20120094356A1.

Biological target: trypsin
Assay: trypsin inhibition assay, 10 nM each, chromogenic substrate; Ka calculated

- Ka: 7.5e+08 M⁻¹
Substance: human growth hormone/alpha-1 antitrypsin fusion [T109wt: α1AT/hGH]
